Measurements: patent US20140087995A1 (published 2014)
Values belong to the binder of their own block, whether it stands above or below them. Numbered stars: 1 amine (or outer) side, 2 acyl side, 3 side chain; on linkers, the order of the positions; unused ones are H or OH. Bridge positions count the residues as written; N and C are the ends. Side chains are listed from the residue outwards. Ends that are not written are not given here. * marks the point of attachment. C20 diacid = O=C(O)CCCCCCCCCCCCCCCCCCC(=O)*; γGlu = O=C(O)[C@H](CCC(=O)[*:2])N[*:1]; AEEA = NCCOCCOCC(=O)O

Legend:
[1] = biological target: T1, rat calcitonin receptor (rat, UniProt P32214 25-516); experiment: IC50 on rat CTR divided by IC50 on rat amylin receptor (Assays VIII/VI)
T1 construct: whole, on cells; Used as membranes prepared from BHK tk'ts 13 cells transiently transfected with the rat calcitonin receptor (Assay VIII); also called rCTR; rat calcitonin (a) receptor
T1 sequence (looked up): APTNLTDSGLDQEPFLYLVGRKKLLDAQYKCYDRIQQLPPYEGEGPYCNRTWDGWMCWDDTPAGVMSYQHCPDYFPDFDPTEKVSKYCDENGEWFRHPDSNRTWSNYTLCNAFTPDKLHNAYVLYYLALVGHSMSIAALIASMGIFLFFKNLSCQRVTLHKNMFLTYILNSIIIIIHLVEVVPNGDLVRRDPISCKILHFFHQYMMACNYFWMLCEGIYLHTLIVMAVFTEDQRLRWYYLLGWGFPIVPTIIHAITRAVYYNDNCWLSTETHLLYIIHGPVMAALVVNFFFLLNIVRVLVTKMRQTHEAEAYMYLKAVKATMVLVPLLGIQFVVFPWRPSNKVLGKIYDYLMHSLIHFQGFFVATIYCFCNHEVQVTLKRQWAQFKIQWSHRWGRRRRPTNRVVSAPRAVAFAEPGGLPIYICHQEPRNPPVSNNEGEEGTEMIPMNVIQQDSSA

[2] = biological target: T2, human calcitonin receptor (human, UniProt P30988 25-474); experiment: IC50 on human CTR divided by IC50 on human amylin receptor (Assays VII/V)
T2 construct: whole, on cells; Used as membranes prepared from a BHK tk'ts 13 cell line stably transfected with the human calcitonin receptor (Assay VII); also called hCTR; hCT
T2 sequence (looked up): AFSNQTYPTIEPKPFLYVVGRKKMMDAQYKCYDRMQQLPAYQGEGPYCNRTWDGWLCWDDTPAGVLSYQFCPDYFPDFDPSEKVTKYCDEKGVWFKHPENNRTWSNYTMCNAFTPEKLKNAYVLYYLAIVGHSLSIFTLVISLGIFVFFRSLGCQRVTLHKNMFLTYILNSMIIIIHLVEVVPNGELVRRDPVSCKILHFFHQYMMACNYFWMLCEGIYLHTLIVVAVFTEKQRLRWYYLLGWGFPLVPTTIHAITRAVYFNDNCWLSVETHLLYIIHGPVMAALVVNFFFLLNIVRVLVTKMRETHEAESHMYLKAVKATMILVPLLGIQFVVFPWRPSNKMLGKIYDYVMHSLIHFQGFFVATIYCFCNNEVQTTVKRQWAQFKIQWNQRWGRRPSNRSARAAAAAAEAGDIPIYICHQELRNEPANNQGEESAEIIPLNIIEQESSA
Outline: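 IC₅₀ values were derived by one-site competition analysis of SPA counts. Cell membranes (35 ng/μL) with SPA beads were incubated with test compounds for 120 min at 25° C in Hepes buffer, pH 7.4, containing CaCl2, MgCl₂, OA and Tween20.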

[3] = biological target: T1, rat calcitonin receptor; experiment: SPA competition with 125I-calcitonin, membranes of BHK cells with rat CTR (Assay VIII)
[4] = biological target: T3, rat amylin receptor (rat calcitonin receptor + rat RAMP 3) (rat, UniProt P32214 25-516; Q9JJ73 23-147); experiment: SPA competition with 125I-rat amylin, membranes of BHK cells with rat CTR + rat RAMP3 (Assay VI)
T3 construct: whole, on cells; Used as membranes prepared from BHK tk'ts 13 cells transiently transfected with rat calcitonin receptor and rat RAMP 3 (Assay VI); also called rAmylin-R; rat amylin 3(a) receptor
T3 sequence (looked up) 1: T1 sequence (looked up)
T3 sequence (looked up) 2: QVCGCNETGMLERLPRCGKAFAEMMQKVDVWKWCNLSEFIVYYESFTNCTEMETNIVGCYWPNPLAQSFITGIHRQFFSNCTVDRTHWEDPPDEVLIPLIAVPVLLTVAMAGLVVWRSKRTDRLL

Ratio rCT/rAmylin binding [1]: 179
Ratio hCT/hAmylin binding [2]: 146
IC50 [3]: 8.79 nM
IC50 [4]: 0.049 nM
B1: N^ε1-[2-[2-[2-[[(4S)-4-carboxy-4-(19-carboxynonadecanoylamino)butanoyl]amino]ethoxy]ethoxy]acetyl]-[Arg17,Pro21,Pro27,Pro29,Pro31]-h-amylin (peptide)
peptide: K([AEEA-γGlu-C20 diacid])CNTATCATQRLANFLRHSSPNFGAIPSPTPVGSNTY-NH2
modifications: disulfide 2-7; N-terminus assumed
SMILES: CC[C@H](C)[C@H](NC(=O)[C@H](C)NC(=O)CNC(=O)[C@H](Cc1ccccc1)NC(=O)[C@H](CC(N)=O)NC(=O)[C@@H]1CCCN1C(=O)[C@H](CO)NC(=O)[C@H](CO)NC(=O)[C@H](Cc1c[nH]cn1)NC(=O)[C@H](CCCNC(=N)N)NC(=O)[C@H](CC(C)C)NC(=O)[C@H](Cc1ccccc1)NC(=O)[C@H](CC(N)=O)NC(=O)[C@H](C)NC(=O)[C@H](CC(C)C)NC(=O)[C@H](CCCNC(=N)N)NC(=O)[C@H](CCC(N)=O)NC(=O)[C@@H](NC(=O)[C@H](C)NC(=O)[C@@H]1CSSC[C@H](NC(=O)[C@@H](N)CCCCNC(=O)COCCOCCNC(=O)CC[C@H](NC(=O)CCCCCCCCCCCCCCCCCCC(=O)O)C(=O)O)C(=O)N[C@@H](CC(N)=O)C(=O)N[C@@H]([C@@H](C)O)C(=O)N[C@@H](C)C(=O)N[C@@H]([C@@H](C)O)C(=O)N1)[C@@H](C)O)C(=O)N1CCC[C@H]1C(=O)N[C@@H](CO)C(=O)N1CCC[C@H]1C(=O)N[C@H](C(=O)N1CCC[C@H]1C(=O)N[C@H](C(=O)NCC(=O)N[C@@H](CO)C(=O)N[C@@H](CC(N)=O)C(=O)N[C@H](C(=O)N[C@@H](Cc1ccc(O)cc1)C(N)=O)[C@@H](C)O)C(C)C)[C@@H](C)O
notes: Analogue of human amylin; also called compound 54

Ratio rCT/rAmylin binding [1]: 135
Ratio hCT/hAmylin binding [2]: 133
IC50 [3]: 24.4 nM
IC50 [4]: 0.181 nM
B2: N^ε1-[2-[2-[2-[[(4S)-4-carboxy-4-(19-carboxynonadecanoylamino)butanoyl]amino]ethoxy]ethoxy]acetyl]-[Arg17,Pro21,Pro27,Pro31,His35]-h-amylin (peptide)
peptide: K([AEEA-γGlu-C20 diacid])CNTATCATQRLANFLRHSSPNFGAIPSSTPVGSHTY-NH2
modifications: disulfide 2-7; N-terminus assumed
SMILES: CC[C@H](C)[C@H](NC(=O)[C@H](C)NC(=O)CNC(=O)[C@H](Cc1ccccc1)NC(=O)[C@H](CC(N)=O)NC(=O)[C@@H]1CCCN1C(=O)[C@H](CO)NC(=O)[C@H](CO)NC(=O)[C@H](Cc1c[nH]cn1)NC(=O)[C@H](CCCNC(=N)N)NC(=O)[C@H](CC(C)C)NC(=O)[C@H](Cc1ccccc1)NC(=O)[C@H](CC(N)=O)NC(=O)[C@H](C)NC(=O)[C@H](CC(C)C)NC(=O)[C@H](CCCNC(=N)N)NC(=O)[C@H](CCC(N)=O)NC(=O)[C@@H](NC(=O)[C@H](C)NC(=O)[C@@H]1CSSC[C@H](NC(=O)[C@@H](N)CCCCNC(=O)COCCOCCNC(=O)CC[C@H](NC(=O)CCCCCCCCCCCCCCCCCCC(=O)O)C(=O)O)C(=O)N[C@@H](CC(N)=O)C(=O)N[C@@H]([C@@H](C)O)C(=O)N[C@@H](C)C(=O)N[C@@H]([C@@H](C)O)C(=O)N1)[C@@H](C)O)C(=O)N1CCC[C@H]1C(=O)N[C@@H](CO)C(=O)N[C@@H](CO)C(=O)N[C@H](C(=O)N1CCC[C@H]1C(=O)N[C@H](C(=O)NCC(=O)N[C@@H](CO)C(=O)N[C@@H](Cc1c[nH]cn1)C(=O)N[C@H](C(=O)N[C@@H](Cc1ccc(O)cc1)C(N)=O)[C@@H](C)O)C(C)C)[C@@H](C)O
notes: Analogue of human amylin; also called compound 57

Ratio rCT/rAmylin binding [1]: 131
Ratio hCT/hAmylin binding [2]: 42.6
IC50 [3]: 5.26 nM
IC50 [4]: 0.04 nM
B3: N^ε1-[2-[2-[2-[[(4S)-4-carboxy-4-(19-carboxynonadecanoylamino)butanoyl]amino]ethoxy]ethoxy]acetyl]-[Arg17,Pro21,Pro27,Pro29,Pro34]-h-amylin (peptide)
peptide: K([AEEA-γGlu-C20 diacid])CNTATCATQRLANFLRHSSPNFGAIPSPTNVGPNTY-NH2
modifications: disulfide 2-7; N-terminus assumed
SMILES: CC[C@H](C)[C@H](NC(=O)[C@H](C)NC(=O)CNC(=O)[C@H](Cc1ccccc1)NC(=O)[C@H](CC(N)=O)NC(=O)[C@@H]1CCCN1C(=O)[C@H](CO)NC(=O)[C@H](CO)NC(=O)[C@H](Cc1c[nH]cn1)NC(=O)[C@H](CCCNC(=N)N)NC(=O)[C@H](CC(C)C)NC(=O)[C@H](Cc1ccccc1)NC(=O)[C@H](CC(N)=O)NC(=O)[C@H](C)NC(=O)[C@H](CC(C)C)NC(=O)[C@H](CCCNC(=N)N)NC(=O)[C@H](CCC(N)=O)NC(=O)[C@@H](NC(=O)[C@H](C)NC(=O)[C@@H]1CSSC[C@H](NC(=O)[C@@H](N)CCCCNC(=O)COCCOCCNC(=O)CC[C@H](NC(=O)CCCCCCCCCCCCCCCCCCC(=O)O)C(=O)O)C(=O)N[C@@H](CC(N)=O)C(=O)N[C@@H]([C@@H](C)O)C(=O)N[C@@H](C)C(=O)N[C@@H]([C@@H](C)O)C(=O)N1)[C@@H](C)O)C(=O)N1CCC[C@H]1C(=O)N[C@@H](CO)C(=O)N1CCC[C@H]1C(=O)N[C@H](C(=O)N[C@@H](CC(N)=O)C(=O)N[C@H](C(=O)NCC(=O)N1CCC[C@H]1C(=O)N[C@@H](CC(N)=O)C(=O)N[C@H](C(=O)N[C@@H](Cc1ccc(O)cc1)C(N)=O)[C@@H](C)O)C(C)C)[C@@H](C)O
notes: Analogue of human amylin; also called compound 56

Ratio rCT/rAmylin binding [1]: 47.7
Ratio hCT/hAmylin binding [2]: 10.8
IC50 [3]: 51.4 nM
IC50 [4]: 1.08 nM
B4: N^ε1-[2-[2-[2-[[(4S)-4-carboxy-4-(19-carboxynonadecanoylamino)butanoyl]amino]ethoxy]ethoxy]acetyl]-[Arg17,Pro21,Pro27,Pro31]-h-amylin (peptide)
peptide: K([AEEA-γGlu-C20 diacid])CNTATCATQRLANFLRHSSPNFGAIPSSTPVGSNTY-NH2
modifications: disulfide 2-7; N-terminus assumed
SMILES: CC[C@H](C)[C@H](NC(=O)[C@H](C)NC(=O)CNC(=O)[C@H](Cc1ccccc1)NC(=O)[C@H](CC(N)=O)NC(=O)[C@@H]1CCCN1C(=O)[C@H](CO)NC(=O)[C@H](CO)NC(=O)[C@H](Cc1c[nH]cn1)NC(=O)[C@H](CCCNC(=N)N)NC(=O)[C@H](CC(C)C)NC(=O)[C@H](Cc1ccccc1)NC(=O)[C@H](CC(N)=O)NC(=O)[C@H](C)NC(=O)[C@H](CC(C)C)NC(=O)[C@H](CCCNC(=N)N)NC(=O)[C@H](CCC(N)=O)NC(=O)[C@@H](NC(=O)[C@H](C)NC(=O)[C@@H]1CSSC[C@H](NC(=O)[C@@H](N)CCCCNC(=O)COCCOCCNC(=O)CC[C@H](NC(=O)CCCCCCCCCCCCCCCCCCC(=O)O)C(=O)O)C(=O)N[C@@H](CC(N)=O)C(=O)N[C@@H]([C@@H](C)O)C(=O)N[C@@H](C)C(=O)N[C@@H]([C@@H](C)O)C(=O)N1)[C@@H](C)O)C(=O)N1CCC[C@H]1C(=O)N[C@@H](CO)C(=O)N[C@@H](CO)C(=O)N[C@H](C(=O)N1CCC[C@H]1C(=O)N[C@H](C(=O)NCC(=O)N[C@@H](CO)C(=O)N[C@@H](CC(N)=O)C(=O)N[C@H](C(=O)N[C@@H](Cc1ccc(O)cc1)C(N)=O)[C@@H](C)O)C(C)C)[C@@H](C)O
notes: Analogue of human amylin; also called compound 49
